These results are taken from publication PMC7440919, “Cryo-EM structure of the lysosomal chloride-proton exchanger CLC-7 in complex with OSTM1” (eLife, 2020).

B1: human osteopetrosis-associated transmembrane protein 1 (OSTM1) (natural protein)
chain: ALPFGSSPHRVFHDLLSEQQLLEVEDLSLSLLQGGGLGPLSLPPDLPDLDPECRELLLDFANSSAELTGCLVRSARPVRLCQTCYPLFQQVVSKMDNISRAAGNTSESQSCARSLLMADRMQIVVILSEFFNTTWQEANCANCLTNNSEELSNSTVYFLNLFNHTLTCFEHNLQGNAHSLLQTKNYSEVCKNCREAYKTLSSLYSEMQKMNELENKAEPGTHLCIDVEDAMNITRKLWSRTFNCSVPCSDTVPVIAVSVFILFLPVVFYLSSFLHSEQKKRKLILPKRLKSSTSFANIQENSN
modifications: N-linked carbohydrate at asparagines 93, 128, 163, 184, 194, 263 and 274; five disulfide bonds in the luminal domain
notes: OSTM1, human, single-pass transmembrane protein; synthesized gene (SynBio); C-terminal cytoplasmic domain disordered in the structure; Printed residue numbers appear to count on the precursor; also called hsOSTM1; beta-subunit of CLC-7; not shown: mVenus, C-terminal, cleaved
B2: human CLC-7 (natural protein, UniProt P51798 1-805, looked up)
chain: MANVSKKVSWSGRDRDDEEAAPLLRRTARPGGGTPLLNGAGPGAARQSPRSALFRVGHMSSVELDDELLDPDMDPPHPFPKEIPHNEKLLSLKYESLDYDNSENQLFLEEERRINHTAFRTVEIKRWVICALIGILTGLVACFIDIVVENLAGLKYRVIKGNIDKFTEKGGLSFSLLLWATLNAAFVLVGSVIVAFIEPVAAGSGIPQIKCFLNGVKIPHVVRLKTLVIKVSGVILSVVGGLAVGKEGPMIHSGSVIAAGISQGRSTSLKRDFKIFEYFRRDTEKRDFVSAGAAAGVSAAFGAPVGGVLFSLEEGASFWNQFLTWRIFFASMISTFTLNFVLSIYHGNMWDLSSPGLINFGRFDSEKMAYTIHEIPVFIAMGVVGGVLGAVFNALNYWLTMFRIRYIHRPCLQVIEAVLVAAVTATVAFVLIYSSRDCQPLQGGSMSYPLQLFCADGEYNSMAAAFFNTPEKSVVSLFHDPPGSYNPLTLGLFTLVYFFLACWTYGLTVSAGVFIPSLLIGAAWGRLFGISLSYLTGAAIWADPGKYALMGAAAQLGGIVRMTLSLTVIMMEATSNVTYGFPIMLVLMTAKIVGDVFIEGLYDMHIQLQSVPFLHWEAPVTSHSLTAREVMSTPVTCLRRREKVGVIVDVLSDTASNHNGFPVVEHADDTQPARLQGLILRSQLIVLLKHKVFVERSNLGLVQRRLRLKDFRDAYPRFPPIQSIHVSQDERECTMDLSEFMNPSPYTVPQEASLPRVFKLFRALGLRHLVVVDNRNQVVGLVTRKDLARYRLGKRGLEELSLAQT
notes: CLC-7 (CLCN7) chloride-proton exchanger, human; synthesized gene (SynBio); called full-length in the results for the human CLC-7 expressed alone; the methods describe only the mCerulean construct used for the complex with OSTM1; also called hsCLC-7; hsCLCN7; not shown: mCerulean, C-terminal, cleaved

The target in data set [1] is chicken CLC-7 (Gallus gallus (chicken)). Put plainly: cryo-EM structure; purified ggCLC-7 at 2 mg/ml in LMNG, 50 mM Tris-HCl pH 8, 150 mM KCl, 2 mM DTT; C2 symmetry imposed.
Data set [2] concerns the molecule itself. Put plainly: cryo-EM structure; purified co-expressed hsCLC-7/OSTM1 complex at 2 mg/ml, supplemented with 1 mM ATP and 0.1% LMNG; 50 mM Tris-HCl pH 8, 150 mM KCl, 2 mM DTT; C2 symmetry imposed, local refinements.
In the data set “human CLC-7” the target is B2. The data set is described as above. The following applies: both partners purified.

The term stoichiometry N denotes a count of units in the complex or per binding partner. As for chicken CLC-7 (natural protein), in data set [1], the stoichiometry N was found to be 2.

Regarding B1, in data set [2], the “stoichiometry N” value came to 2. Moreover, the binding result with human CLC-7 is “binds”.

Consider B2, for which the “stoichiometry N” value in data set [2] was determined as 2.
